Test results from patent publication US20080124340A1.

T1: soluble human erythropoietin receptor protein (huEpoR) (human) (UniProt P19235)
T1 sequence (looked up): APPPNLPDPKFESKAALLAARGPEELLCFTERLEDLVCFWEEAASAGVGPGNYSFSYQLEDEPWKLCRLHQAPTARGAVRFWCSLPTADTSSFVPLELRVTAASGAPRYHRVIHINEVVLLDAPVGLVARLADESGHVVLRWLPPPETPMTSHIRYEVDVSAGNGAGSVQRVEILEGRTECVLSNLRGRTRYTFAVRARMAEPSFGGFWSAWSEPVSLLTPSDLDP

T2: human erythropoietin receptor (huEpoR), cell surface expressed (human) (UniProt P19235)
T2 sequence (looked up): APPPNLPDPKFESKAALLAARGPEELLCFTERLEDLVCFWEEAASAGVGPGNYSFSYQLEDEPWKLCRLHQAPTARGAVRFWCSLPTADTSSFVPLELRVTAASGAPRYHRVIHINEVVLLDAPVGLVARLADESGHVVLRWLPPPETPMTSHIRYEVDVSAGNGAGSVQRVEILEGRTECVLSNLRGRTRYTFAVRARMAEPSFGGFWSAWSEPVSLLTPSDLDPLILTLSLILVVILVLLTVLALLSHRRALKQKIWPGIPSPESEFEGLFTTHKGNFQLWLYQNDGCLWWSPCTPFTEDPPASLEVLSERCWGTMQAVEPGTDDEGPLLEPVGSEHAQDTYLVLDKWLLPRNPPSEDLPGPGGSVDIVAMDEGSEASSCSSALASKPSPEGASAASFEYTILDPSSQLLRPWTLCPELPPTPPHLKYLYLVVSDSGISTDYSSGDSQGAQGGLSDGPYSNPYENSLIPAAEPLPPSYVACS


Experiments:
[1] = molecular target: cynomolgus monkey EpoR (cynoEpoR) (cynomolgus monkey); assay: SPR, Biacore T100; scFv-Fc captured on CM5 chip, EpoR as analyte; fit to steady-state model (off-rate too rapid); clone #318, cynomolgus EpoR, steady-state fit
[2] = molecular target: T1, soluble human erythropoietin receptor protein (huEpoR) (human); assay: SPR, Biacore T100; scFv-Fc captured by anti-human IgG Fc on CM5 chip, EpoR as analyte
[3] = molecular target: T2, human erythropoietin receptor (huEpoR), cell surface expressed (human); assay: cell-based or functional assay
[4] = molecular target: cynomolgus monkey EpoR (cynoEpoR) (cynomolgus monkey); assay: SPR, Biacore T100; scFv-Fc captured by anti-human IgG Fc on CM5 chip, EpoR as analyte
[5] = molecular target: cynomolgus monkey EpoR (cynoEpoR) (cynomolgus monkey); assay: SPR, Biacore T100; scFv-Fc captured on CM5 chip, EpoR as analyte; fit to steady-state model (off-rate too rapid); clone #34, cynomolgus EpoR, steady-state fit

Binder	Kd [1]	Kd [2]	koff [2]	kon [2]	Average EC50, UT-7-luciferase assay [3]	Kd [4]	koff [4]	kon [4]	Kd [5]
clone 318 scFv-Fc protein (Fc fusion, part only; not given: scFv linker and IgG1 Fc, not shown: a dimerising Fc or GST) scFv, part: QVQLVESGGGLVQPGGSLRLSCAVSGFTFSKYWMTWVRQAPGKGLEWVANIKPDGSEKYYVESVKGRFTISRDNAKNSVYLQMNSVRAEDTAVYYCARVSRGGSFSDWGQGTLVTVSSQSVLTQPPSASGSPGQSVTISCTGTSSDVGGYNYVSWYQQHPGRAPKLIIYEVSKRPSGVPDRFSGSKSGNTASLTVSGLQADDEADYYCNSYAGSIYVFGSGTKVTVL	4890 nM	847 nM	0.558 s⁻¹	659000 M⁻¹ s⁻¹	0.0154 nM				
clone 352 scFv-Fc protein (Fc fusion, part only; not given: scFv linker and IgG1 Fc, not shown: a dimerising Fc or GST) scFv, part: EVQLVQSGGGLVQPGGSLRLSCAASGFRFSSYWMTWVRQAPGKGLEWVANIKPDGSEKYYVDSVKGRFTMSRDNAKNSVYLQMNSLRAEDTAVYYCARVSRGGSFSDWGQGTLVTVSSQSALTQPASVSGSPGQSITIPCTGTSSDIGTYDYVSWYQQHPGKVPKVIIYEVTNRPSGVSNRFSGSKSGNTASLTISGLQADDEADYYCNSFTKNNTWVFGGGTKLTVL					2.16 nM				
clone 15 scFv-Fc protein (Fc fusion, part only; not given: scFv linker and IgG1 Fc, not shown: a dimerising Fc or GST) scFv, part: QVQLQESGPGLVRPSGTLSLTCAVSGGSIGSSNWWSWVRQAPGKGLEWIGEISQSGSTNYNPSLKGRVTISLDRSRNQLSLKLSSVTAADTAVYYCARQLRSIDAFDIWGPGTTVTVSASYVLTQPPSVSVSPGLTATITCSGDKLGDKYASWYQQKPGQSPVLVIYQDRKRPSGIPERFSGSNSGNTATLTISGTQAVDEADYYCQAWDSDTSYVFGTGTQLTVL		1950 nM	0.119 s⁻¹	61000 M⁻¹ s⁻¹	2.8 nM	3130 nM	0.115 s⁻¹	37000 M⁻¹ s⁻¹	
clone 16 scFv-Fc protein (Fc fusion, part only; not given: scFv linker and IgG1 Fc, not shown: a dimerising Fc or GST) scFv, part: QVQLQESGPGLVKPSETLSLTCTVSGGYINNYYWSWIRQPPGKGLEWIGYIHYSGSTYYNPSLKSRVTISEDTSKNQFSLKLSSATAADTAVYYCARVGYYYDSSGYNLAWYFDLWGRGTLVTVSASSELTQDPAVSVALGQTVRITCQGDNLRSYSATWYQQKPGQAPVLVLFGENNRPSGIPDRFSGSKSGDTAVLTITGTQTQDEADYYCTSRVNSGNHLGVFGPGTQLTVL		2190 nM	0.142 s⁻¹	65000 M⁻¹ s⁻¹		4360 nM	0.283 s⁻¹	65000 M⁻¹ s⁻¹	
clone 201 scFv-Fc protein (Fc fusion, part only; not given: scFv linker and IgG1 Fc, not shown: a dimerising Fc or GST) scFv, part: QVQLQESGSGLARPSQTLSLTCAVSGGSISSSAFSWNWIRQPPGKGLEWIGYIYHTGITDYNPSLKSRVTISVDRSKNQFSLNVNSVTAADTAVYYCARGHGSDPAWFDPWGKGTLVTVSSQSVLTQPPSVSVSPGQTASITCSGDKLGDKYASWYQQRPGQSPVLVIYRDTKRPSGIPERFSGSNSGNTATLTISGTQAVDEADYYCQAWDSTTSLVFGGGTKLTVL		4030 nM	0.0187 s⁻¹	4600 M⁻¹ s⁻¹	8.28 nM	18600 nM	0.0508 s⁻¹	2700 M⁻¹ s⁻¹	
clone 34 scFv-Fc protein (Fc fusion, part only; not given: Linker and IgG1 Fc, not shown: another chain or arm of the molecule; a dimerising Fc or GST; small tags and cut ends) VH: QVQLQQSGAEVKKPGASVKVSCKASGYTFSGYYMHWVRQAPGQGLEWMGWINPNSGSTNYAQKFLGRVTMTRDTSISTAYMELSSLRSDDTAVYYCARGHSGDYFDYWGQGTLVTVSA VL: EIVLTQSPSSLSASVGDRVTITCRASQSVSSWLAWYQQRPGQAPKLLIYAARLRGGGPSRFSGSGSGTEFTLTISSLQPEDFATYFCQQSYSTPISFGGGTKLEIK		378 nM	0.203 s⁻¹	536000 M⁻¹ s⁻¹	0.11 nM				5810 nM
clone 13 scFv-Fc protein (Fc fusion, part only; not given: scFv linker and IgG1 Fc, not shown: a dimerising Fc or GST) scFv, part: QVQLQQSGGGVVQPGRSLRLSCAASGFTFSDYAMHWVRQAPGKGLEWVAVISNHGKSTYYADSVKGRFTISRDNSKHMLYLQMNSLRADDTALYYCARDIALAGDYWGQGTLVTVSADIQMTQSPSSLSASVGDRVTITCRASQSISSYLNWYQQLPGKVPKLLIYGASKLQSGVPSRFSGSGSGTDFTLTISSLQPEDFATYYCLQDYNYPLTFGPGTRLEIK		1040 nM	0.0568 s⁻¹	55000 M⁻¹ s⁻¹	4.03 nM	920 nM	0.0597 s⁻¹	65000 M⁻¹ s⁻¹	
clone 307 scFv-Fc protein (Fc fusion, part only; not given: scFv linker and IgG1 Fc, not shown: a dimerising Fc or GST) scFv, part: EVQLVESGGGLVQPGGSLRLSCAVSGFTFSKYWMTWVRQAPGKGLEWVANIKPDGSEKYYVESVKGRFTISRDNAKNSVYLQMNSVRAEDTAVYYCARVSRGGSFSDWGQGTMVTVSSQSVLTQPPSASGSPGQSVTISCTGTSSDVGGYNYVSWYQQHPDKAPRLMIYDVNKRPSGVPDRFSGSKSGNTASLTVSGLQAEDEAHYYCNSYAGSNNWVFGGGTQLTVL		108 nM	0.246 s⁻¹	2.28e+06 M⁻¹ s⁻¹	0.381 nM	1210 nM	0.361 s⁻¹	299000 M⁻¹ s⁻¹	
clone 319 scFv-Fc protein (Fc fusion, part only; not given: Linker and IgG1 Fc, not shown: another chain or arm of the molecule; a dimerising Fc or GST; small tags and cut ends) VH: QVQLVQSGAEIKKPGASVKVSCKTFGSPFSTNDIHWVRQAPGQGLEWMGIIDTSGAMTRYAQKFQGRVTVTRETSTSTVYMELSSLKSEDTAVYYCAREGCTNGVCYDNGFDIWGQGTLVTVSS VL: DIQMTQSPSTLSASIGDRVTITCRASEGIYHWLAWYQQKPGKAPKLLIYKASSLASGAPSRFSGSGSGTDFTLTISSLQPDDFATYYCQQYSNYPLTFGGGTKLEIK		212 nM	0.0335 s⁻¹	158000 M⁻¹ s⁻¹	5.87 nM	121 nM	0.0258 s⁻¹	213000 M⁻¹ s⁻¹	
clone 295 scFv-Fc protein (Fc fusion, part only; not given: scFv linker and IgG1 Fc, not shown: a dimerising Fc or GST) scFv, part: EVQLVESGGGLVQPGGSLRLSCAASGFTFSSYAMSWVRQAPGKGLEWVSGISGSGSSEGGTYYADSVKGRFTLSRDNSKNTLYLQMNSLRAEDTALYYCVKDRPSRYSFGYYFDYWGRGTLVTVSSLPVLTQPPSVSVSPGQTASIACSGNKLGDKYVSWYQQKPGQSPLLVIYQDTKRPSGIPERFSGSNSGNTATLTISGTQAMDEADYYCQAWDSSTDVVFGGGTKLTVL		163 nM	0.00296 s⁻¹	18000 M⁻¹ s⁻¹	0.607 nM	539 nM	0.0221 s⁻¹	41000 M⁻¹ s⁻¹	
clone 330 scFv-Fc protein (Fc fusion, part only; not given: scFv linker and IgG1 Fc, not shown: a dimerising Fc or GST) scFv, part: EVQLVESGGGLVQPGGSLRLSCAVSGFTFSKYWMTWVRQAPGKGLEWVANIKPDGSEKYYVESVKGRFTISRDNAKNSVYLQMNSVRAEDTAVYYCARVSRGGSFSDWGQGTLVTVSSQSALTQPPSASGSPGQSVTISCTGTSSDVGAYNYVSWYQQHPGKAPKLMIYEVARRPSGVPDRFSGSKSGNTASLTVSGLQAEDEADYYCSSYAGSNNFAVFGRGTKLTVL		45.4 nM	0.0373 s⁻¹	822000 M⁻¹ s⁻¹	0.0075 nM	890 nM	0.0965 s⁻¹	108000 M⁻¹ s⁻¹	
clone 323 scFv-Fc protein (Fc fusion, part only; not given: scFv linker and IgG1 Fc, not shown: a dimerising Fc or GST) scFv, part: QVQLVESGGGLVQPGGSLRLSCAVSGFTFSKYWMTWVRQAPGKGLEWVANIKPDGSEKYYVESVKGRFTISRDNAKNSVYLQMNSVRAEDTAVYYCARVSRGGSFSDWGRGTMVTVSSQSALTQPASVSGSPGQSITISCTGTSSDVGSYNLVSWYQQHPGKVPKLIIYEVSNRPSGVSHRFSGSKSGNTASLTISGLQAEDEADYYCSSLTSSGTWVFGGGTKVTVL					0.613 nM				
clone 276 scFv-Fc protein (Fc fusion, part only; not given: scFv linker and IgG1 Fc, not shown: a dimerising Fc or GST) scFv, part: EVQLVQSGGGLVQPGGSLRLSCAASGFTFSSYWMSWVRQAPGKGLEWVANIKPDGSEKYYVDSVKGRFTISRDNAKNSVYLQMNSLRAEDTAVYYCARVSRGGSYSDWGRGTMVTVSSQSVLTQPPSASGSPGQSVTISCTGTSSDVGGFNYVSWYQKYPGKAPKLVIYEVSKRPSGVPDRFSGSKSGNTASLTVSGLQAEDEADYYCSSWAPGKNLFGGGTKLTVL					0.322 nM				
clone 378 scFv-Fc protein (Fc fusion, part only; not given: scFv linker and IgG1 Fc, not shown: a dimerising Fc or GST) scFv, part: QVQLVESGGGLVQPGRSLILSCAVSGFTFSKYWMTWVRQAPGKGLEWVANIKPDGSEKYYVESVKGRFTISRDNAKNSVYLQMNSVRAEDTAVYYCARVSRGGSFSDWSQGTLVTVSSQSALTQPPSASGSPGQSVTISCTGTSGDVGAYNYVSWYQQYPGKAPKLMIYEVSKRPSGVPDRFSGSKSGNTASLTVSGLQAEDEADYYCNSYRGSNGPWVFGGGTKVTVL					0.055 nM				
